B1: mouse RAG1 (aa 265-1040), catalytically inactive E962Q mutant (enzyme, UniProt P15919 265-1040, looked up)
chain: NCSKIHLSTKLLAVDFPAHFVKSISCQICEHILADPVETSCKHLFCRICILRCLKVMGSYCPSCRYPCFPTDLESPVKSFLNILNSLMVKCPAQDCNEEVSLEKYNHHVSSHKESKETLVHINKGGRPRQHLLSLTRRAQKHRLRELKIQVKEFADKEEGGDVKAVCLTLFLLALRARNEHRQADELEAIMQGRGSGLQPAVCLAIRVNTFLSCSQYHKMYRTVKAITGRQIFQPLHALRNAEKVLLPGYHPFEWQPPLKNVSSRTDVGIIDGLSGLASSVDEYPVDTIAKRFRYDSALVSALMDMEEDILEGMRSQDLDDYLNGPFTVVVKESCDGMGDVSEKHGSGPAVPEKAVRFSFTVMRITIEHGSQNVKVFEEPKPNSELCCKPLCLMLADESDHETLTAILSPLIAEREAMKSSELTLEMGGIPRTFKFIFRGTGYDEKLVREVEGLEASGSVYICTLCDTTRLEASQNLVFHSITRSHAENLQRYEVWRSNPYHESVEELRDRVKGVSAKPFIETVPSIDALHCDIGNAAEFYKIFQLEIGEVYKHPNASKEERKRWQATLDKHLRKRMNLKPIMRMNGNFARKLMTQETVDAVCELIPSEERHEALRELMDLYLKMKPVWRSSCPAKECPESLCQYSFNSQRFAELLSTKFKYRYEGKITNYFHKTLAHVPEIIERDGSIGAWASEGNQSGNKLFRRFRKMNARQSKCYEMEDVLKHHWLYTSKYLQKFMNAHNALKSSGFTMNSKETLGDPLGIEDSLESQDSMEF

What was measured:
[1] = biological target: the molecule itself; experiment: cryo-EM structure
[2] = biological target: B1; experiment: cryo-EM structure
[3] = biological target: T1, WT core mouse RAG1 (aa 384-1008) (mouse, UniProt P15919 384-1008); experiment: crystal structure
T1 sequence (looked up): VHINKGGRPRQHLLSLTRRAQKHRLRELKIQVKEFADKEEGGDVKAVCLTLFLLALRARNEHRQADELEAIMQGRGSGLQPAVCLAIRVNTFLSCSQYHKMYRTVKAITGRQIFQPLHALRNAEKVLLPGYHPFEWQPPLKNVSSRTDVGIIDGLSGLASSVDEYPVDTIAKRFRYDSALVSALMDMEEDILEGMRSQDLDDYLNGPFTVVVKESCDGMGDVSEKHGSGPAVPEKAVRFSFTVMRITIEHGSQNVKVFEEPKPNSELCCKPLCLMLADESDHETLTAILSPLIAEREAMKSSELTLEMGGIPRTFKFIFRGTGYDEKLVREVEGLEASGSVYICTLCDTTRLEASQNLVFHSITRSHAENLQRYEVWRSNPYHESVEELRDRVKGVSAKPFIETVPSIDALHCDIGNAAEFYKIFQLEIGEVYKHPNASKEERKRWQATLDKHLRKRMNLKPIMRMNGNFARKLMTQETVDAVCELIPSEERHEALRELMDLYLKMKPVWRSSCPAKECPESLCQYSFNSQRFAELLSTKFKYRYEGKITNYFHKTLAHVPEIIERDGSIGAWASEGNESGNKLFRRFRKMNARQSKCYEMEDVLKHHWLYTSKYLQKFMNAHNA

[4] = biological target: T2, WT core mouse RAG1 (aa 384-1008) (mouse), P15919; experiment: crystal structure; details: remark: other sources report otherwise
T2 chain: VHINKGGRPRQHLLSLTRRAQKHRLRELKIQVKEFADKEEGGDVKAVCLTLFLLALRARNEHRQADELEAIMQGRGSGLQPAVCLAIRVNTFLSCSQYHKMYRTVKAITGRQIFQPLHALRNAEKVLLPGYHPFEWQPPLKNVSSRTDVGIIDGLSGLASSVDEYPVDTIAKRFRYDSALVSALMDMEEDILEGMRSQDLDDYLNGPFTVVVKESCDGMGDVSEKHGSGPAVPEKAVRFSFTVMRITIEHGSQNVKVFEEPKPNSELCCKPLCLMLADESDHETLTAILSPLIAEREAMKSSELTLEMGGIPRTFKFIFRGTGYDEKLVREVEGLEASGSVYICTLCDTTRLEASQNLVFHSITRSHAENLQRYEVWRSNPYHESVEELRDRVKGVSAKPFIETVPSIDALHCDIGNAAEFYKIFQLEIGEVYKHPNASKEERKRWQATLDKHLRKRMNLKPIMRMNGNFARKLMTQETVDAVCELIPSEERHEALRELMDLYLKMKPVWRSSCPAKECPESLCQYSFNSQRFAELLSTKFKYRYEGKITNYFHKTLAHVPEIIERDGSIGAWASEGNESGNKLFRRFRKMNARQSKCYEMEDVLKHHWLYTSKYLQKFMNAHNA

Q: Does B1 bind [1]?
A: binds

B2: mouse RAG1 (aa 265-1040), wild type (enzyme, UniProt P15919 265-1040, looked up)
chain: NCSKIHLSTKLLAVDFPAHFVKSISCQICEHILADPVETSCKHLFCRICILRCLKVMGSYCPSCRYPCFPTDLESPVKSFLNILNSLMVKCPAQDCNEEVSLEKYNHHVSSHKESKETLVHINKGGRPRQHLLSLTRRAQKHRLRELKIQVKEFADKEEGGDVKAVCLTLFLLALRARNEHRQADELEAIMQGRGSGLQPAVCLAIRVNTFLSCSQYHKMYRTVKAITGRQIFQPLHALRNAEKVLLPGYHPFEWQPPLKNVSSRTDVGIIDGLSGLASSVDEYPVDTIAKRFRYDSALVSALMDMEEDILEGMRSQDLDDYLNGPFTVVVKESCDGMGDVSEKHGSGPAVPEKAVRFSFTVMRITIEHGSQNVKVFEEPKPNSELCCKPLCLMLADESDHETLTAILSPLIAEREAMKSSELTLEMGGIPRTFKFIFRGTGYDEKLVREVEGLEASGSVYICTLCDTTRLEASQNLVFHSITRSHAENLQRYEVWRSNPYHESVEELRDRVKGVSAKPFIETVPSIDALHCDIGNAAEFYKIFQLEIGEVYKHPNASKEERKRWQATLDKHLRKRMNLKPIMRMNGNFARKLMTQETVDAVCELIPSEERHEALRELMDLYLKMKPVWRSSCPAKECPESLCQYSFNSQRFAELLSTKFKYRYEGKITNYFHKTLAHVPEIIERDGSIGAWASEGNESGNKLFRRFRKMNARQSKCYEMEDVLKHHWLYTSKYLQKFMNAHNALKSSGFTMNSKETLGDPLGIEDSLESQDSMEF
Q: Does B2 bind [1]?
A: binds

B3: mouse RAG2 (aa 1-520), degradation resistant T490A mutant (natural protein, UniProt P21784 1-520, looked up)
chain: MSLQMVTVGHNIALIQPGFSLMNFDGQVFFFGQKGWPKRSCPTGVFHFDIKQNHLKLKPAIFSKDSCYLPPLRYPATCSYKGSIDSDKHQYIIHGGKTPNNELSDKIYIMSVACKNNKKVTFRCTEKDLVGDVPEPRYGHSIDVVYSRGKSMGVLFGGRSYMPSTQRTTEKWNSVADCLPHVFLIDFEFGCATSYILPELQDGLSFHVSIARNDTVYILGGHSLASNIRPANLYRIRVDLPLGTPAVNCTVLPGGISVSSAILTQTNNDEFVIVGGYQLENQKRMVCSLVSLGDNTIEISEMETPDWTSDIKHSKIWFGSNMGNGTIFLGIPGDNKQAMSEAFYFYTLRCSEEDLSEDQKIVSNSQTSTEDPGDSTPFEDSEEFCFSAEATSFDGDDEFDTYNEDDEDDESVTGYWITCCPTCDVDINTWVPFYSTELNKPAMIYCSHGDGHWVHAQCMDLEERTLIHLSEGSNKYYCNEHVQIARALQAPKRNPPLQKPPMKSLHKKGSGKVLTPAKKS
Q: Does B3 bind [2]?
A: binds

B4: WT core mouse RAG2 (aa 1-359) (domain or fragment, UniProt P21784 1-359, looked up)
chain: MSLQMVTVGHNIALIQPGFSLMNFDGQVFFFGQKGWPKRSCPTGVFHFDIKQNHLKLKPAIFSKDSCYLPPLRYPATCSYKGSIDSDKHQYIIHGGKTPNNELSDKIYIMSVACKNNKKVTFRCTEKDLVGDVPEPRYGHSIDVVYSRGKSMGVLFGGRSYMPSTQRTTEKWNSVADCLPHVFLIDFEFGCATSYILPELQDGLSFHVSIARNDTVYILGGHSLASNIRPANLYRIRVDLPLGTPAVNCTVLPGGISVSSAILTQTNNDEFVIVGGYQLENQKRMVCSLVSLGDNTIEISEMETPDWTSDIKHSKIWFGSNMGNGTIFLGIPGDNKQAMSEAFYFYTLRCSEEDLSEDQ
Q: Does B4 bind [3]?
A: binds

B5: WT core mouse RAG1 (aa 384-1008), P15919 384-1008 (enzyme)
chain: VHINKGGRPRQHLLSLTRRAQKHRLRELKIQVKEFADKEEGGDVKAVCLTLFLLALRARNEHRQADELEAIMQGRGSGLQPAVCLAIRVNTFLSCSQYHKMYRTVKAITGRQIFQPLHALRNAEKVLLPGYHPFEWQPPLKNVSSRTDVGIIDGLSGLASSVDEYPVDTIAKRFRYDSALVSALMDMEEDILEGMRSQDLDDYLNGPFTVVVKESCDGMGDVSEKHGSGPAVPEKAVRFSFTVMRITIEHGSQNVKVFEEPKPNSELCCKPLCLMLADESDHETLTAILSPLIAEREAMKSSELTLEMGGIPRTFKFIFRGTGYDEKLVREVEGLEASGSVYICTLCDTTRLEASQNLVFHSITRSHAENLQRYEVWRSNPYHESVEELRDRVKGVSAKPFIETVPSIDALHCDIGNAAEFYKIFQLEIGEVYKHPNASKEERKRWQATLDKHLRKRMNLKPIMRMNGNFARKLMTQETVDAVCELIPSEERHEALRELMDLYLKMKPVWRSSCPAKECPESLCQYSFNSQRFAELLSTKFKYRYEGKITNYFHKTLAHVPEIIERDGSIGAWASEGNESGNKLFRRFRKMNARQSKCYEMEDVLKHHWLYTSKYLQKFMNAHNA
Q: For B5, which stoichiometry N [4] is on record?
A: 2

— publication PMC7015813 (Nature structural & molecular biology, 2020)
